In patent publication US20230340091A1 (MOR RESEARCH APPLICATIONS, published 2023):

B1: PMS209 (Fab 2), Fab format (Fab, V domains shown)
VH: QVQLQESGPGLVKPSETLSLTCTVSGGSISSSSYYWGWIRQPPGKGLEWIGSIYYSGSTYYNPSLKSRVTISVDTSKNQFSLKLSSVTAADTAVYYCARLRRYDSSGFFFDYWGQGTLVTVSS
VL: SVVTQPPSVSAAPGQKVTISCSGSSSNIGNNYVSWHQQLPGTAPKLLIYDNDRRPSGIPDRFSGSKSGTSATLAITGLQTGDEADYYCGTWDSSLSGGVFGGGTKVTVLS
B2: PMS213 (Fab 6), Fab format (Fab, V domains shown)
VH: QVQLVQSGPGLVKPSETLSLICTVSGGSISSSNYYWGWVRQPPGKGLEWIGTIYYSGTTYYNPSLKSRVTISVDTSKNQFSLELSSVTAADTAVYYCARLGRGSAFDIWGQGTMVTVSS
VL: SVVTQPPSLSAAPGQSITISCSGGGSNIGRNSVSWHRQFPGAAPELLAFDTFRRPSGVPDRFSGSKSGSSATLVITGLQTGDEADYYCGTWDNSLDSGVFGGGTKVTVLR
notes: Fab expressed in E. coli with His and myc tags on the heavy chain

Target: recombinant human alpha-synuclein preformed fibrils (PFF) (human, UniProt P37840 1-140)
Experiment: ELISA on coated alpha-synuclein PFF, Fab in serial dilution
Protocol: A standard ELISA assay was performed using alpha-synuclein PFFs as the coating protein.

Row | binding result | Binder
1 | no binding | B1
2 | no binding | B2
